# In paper PMC10897489:
# B1: NF1 RNA (ssRNA)
# RNA: GGAUCAUUUUGUUGGACUCAAUUUCAACUCUAACUUUAACUUUGCAUUGGUUGGACACCU
# Legend:
# [1] = target: SARS-CoV-2 N protein (NCAP_SARS2) (SARS-CoV-2, UniProt P0DTC9 1-419); assay: ITC; details: protein: recombinant; chain copies: 2
# FXR1 215-360 (KH1-KH2) = FXR1 215-360 (KH1-KH2) (UniProt P51114 215-360); assay: ITC; ITC: 50 mM sodium phosphate pH 7.5, 150 mM NaCl, 0.5 mM TCEP, 25 °C; details: protein: recombinant; tags: His or GST (not specified which)
binder,measurement,setting,value
B1,Kd,[1],380 ± 40 nM
same,binding result,FXR1 215-360 (KH1-KH2),no binding
